# Values quoted from earlier work in paper PMC5904255.
# Target: C1q (Homo sapiens) (UniProt P02745)
# Sequence (P02745 23-245, chain 1 of 3): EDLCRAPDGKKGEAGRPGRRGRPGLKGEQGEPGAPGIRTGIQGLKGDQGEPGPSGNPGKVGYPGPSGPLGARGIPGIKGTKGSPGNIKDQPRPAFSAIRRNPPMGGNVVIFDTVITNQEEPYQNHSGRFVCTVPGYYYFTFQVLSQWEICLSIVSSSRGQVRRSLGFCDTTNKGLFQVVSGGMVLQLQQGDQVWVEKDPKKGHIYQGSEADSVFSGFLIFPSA
# Sequence (P02746 28-253, chain 2 of 3, further chain): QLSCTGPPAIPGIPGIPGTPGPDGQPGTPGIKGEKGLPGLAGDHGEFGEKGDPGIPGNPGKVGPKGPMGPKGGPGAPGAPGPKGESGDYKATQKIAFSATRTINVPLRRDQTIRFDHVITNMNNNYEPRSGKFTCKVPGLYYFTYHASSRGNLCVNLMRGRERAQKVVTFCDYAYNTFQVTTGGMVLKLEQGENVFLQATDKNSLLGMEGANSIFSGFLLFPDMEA
# Sequence (P02747 29-245, chain 3 of 3, further chain): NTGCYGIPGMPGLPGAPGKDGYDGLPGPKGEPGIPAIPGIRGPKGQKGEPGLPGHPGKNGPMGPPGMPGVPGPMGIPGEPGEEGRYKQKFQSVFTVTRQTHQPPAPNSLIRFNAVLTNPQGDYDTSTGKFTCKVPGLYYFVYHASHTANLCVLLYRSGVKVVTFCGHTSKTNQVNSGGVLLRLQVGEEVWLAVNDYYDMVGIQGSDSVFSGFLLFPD
# HMGB1, sequence (P09429 whole entry): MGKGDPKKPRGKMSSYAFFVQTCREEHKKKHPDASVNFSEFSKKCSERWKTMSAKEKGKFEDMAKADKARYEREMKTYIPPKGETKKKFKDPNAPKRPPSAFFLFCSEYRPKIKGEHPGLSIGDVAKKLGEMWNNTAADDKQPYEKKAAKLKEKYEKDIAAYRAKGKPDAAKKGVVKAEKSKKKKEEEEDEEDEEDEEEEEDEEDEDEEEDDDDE
substance,measurement,value
HMGB1 (from UniProt P09429),Kd,200 nM
